± gives the standard deviation of the averaged measurements.
System: ATP
Assay: switch fluorescence ratio, 500 uM ATP over buffer (Cy3 cluster intensity, sum of 5 cycles each) (fold (ratio)); higher = stronger signal-on switching upon ATP binding; sequences stand for … in TCGTCGGCAGCGTCAGATGTGTATAAGAGACAGTTTTTTTTTTTTTTTTTTTTTTTTT…TC
Conditions: aptamer strand: ATP DNA aptamer (quencher-CACCTGGGGGAGTATTGCGGAGGAAGG + anchor), 100 nM annealed; ATP concentration: 500 uM
Procedure, shortened: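 Between each of five buffer/ATP cycles, the flow-cell was stripped with NaOH and re-annealed. Each cycle imaged Cy3-labelled switching-strand clusters, annealed to 100 nM quencher-labelled ATP aptamer on a modified Illumina MiSeq flow-cell, first in selection buffer and then after 15 min with 500 uM ATP at 22 °C. The fluorescence ratio is summed target-cycle over summed buffer-cycle Cy3 intensity per cluster, averaged per switch-domain sequence, with clusters outside 100-1000 RFU excluded.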
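Also: ATP exposure 15 min at 22 °C before imaging.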

For TGGTCTATTT, the switch fluorescence ratio was 0.965 ± 0.019.
For TGGTCTCTAA, the switch fluorescence ratio was 0.98 ± 0.01.
With TGGTCTTCCA the switch fluorescence ratio was 1.04 ± 0.013.
For TGGTGAATTT, the switch fluorescence ratio was 1.016 ± 0.0067.
TGGTGAGGCT gave a switch fluorescence ratio of 0.9694 ± 0.0037.
TGGTGGCGGT was tested, and the switch fluorescence ratio was 1.01 ± 0.075.
With TGGTGGGAGG the switch fluorescence ratio was 1 ± 0.015.
Work on TGGTGGGGAG yielded a switch fluorescence ratio of 1.01 ± 0.045.
Work on TGGTGGGGGG yielded a switch fluorescence ratio of 0.997 ± 0.037.
Work on TGGTGGGGTG yielded a switch fluorescence ratio of 0.986 ± 0.012.
With TGGTGGTGGC the switch fluorescence ratio was 0.981 ± 0.0072.
For TGGTGTCTAT, the switch fluorescence ratio was 1.007 ± 0.0087.
TGGTGTGACA gave a switch fluorescence ratio of 0.995 ± 0.065.
For TGGTGTTGGG, the switch fluorescence ratio was 0.983 ± 0.015.
Work on TGGTGTTTTG yielded a switch fluorescence ratio of 0.999 ± 0.031.
TGGTTAAATC was tested, and the switch fluorescence ratio was 1.03 ± 0.019.
For TGGTTACGGG, the switch fluorescence ratio was 0.993 ± 0.012.
For TGGTTATGTA, the switch fluorescence ratio was 1 ± 0.014.
Work on TGGTTCAAGT yielded a switch fluorescence ratio of 0.984 ± 0.011.
TGGTTGAATA gave a switch fluorescence ratio of 0.998 ± 0.05.
TGGTTGCAGG showed a switch fluorescence ratio of 1.05 ± 0.042.
TGGTTGGCGT was tested, and the switch fluorescence ratio was 1.04 ± 0.066.
Sequence TGGTTGGTGT has a switch fluorescence ratio of 1.06 ± 0.015.
Work on TGGTTGTGGG yielded a switch fluorescence ratio of 0.996 ± 0.028.
TGGTTTAGTG was tested, and the switch fluorescence ratio was 0.976 ± 0.031.
For TGGTTTCCTT, the switch fluorescence ratio was 0.955 ± 0.025.
In the case of TGGTTTCGTG, the switch fluorescence ratio is reported as 1.01 ± 0.023.
With TGGTTTGGAA the switch fluorescence ratio was 0.998 ± 0.05.
TGGTTTGGGA gave a switch fluorescence ratio of 1 ± 0.029.
In the case of TGGTTTTTAA, the switch fluorescence ratio is reported as 0.977 ± 0.052.
For TGGTTTTTGA, the switch fluorescence ratio was 0.988 ± 0.038.
For TGTAAAAAAA, the switch fluorescence ratio was 1.04 ± 0.044.
TGTAAAACTA gave a switch fluorescence ratio of 1.02 ± 0.028.
With TGTAAAGGGT the switch fluorescence ratio was 0.9778 ± 0.0084.
With TGTAAATTTT the switch fluorescence ratio was 1.03 ± 0.041.
With TGTAACTTGC the switch fluorescence ratio was 1.077 ± 0.0036.
For TGTAAGAAAA, the switch fluorescence ratio was 0.985 ± 0.052.
Sequence TGTAAGAGCG has a switch fluorescence ratio of 0.9934 ± 0.0022.
TGTAAGCTAG gave a switch fluorescence ratio of 1.017 ± 0.0066.
In the case of TGTAAGGGAA, the switch fluorescence ratio is reported as 1.01 ± 0.018.
In the case of TGTAAGGTCG, the switch fluorescence ratio is reported as 1.013 ± 0.01.
TGTAAGGTGA gave a switch fluorescence ratio of 1.03 ± 0.022.
In the case of TGTAAGTATT, the switch fluorescence ratio is reported as 1.02 ± 0.018.
For TGTAATTACA, the switch fluorescence ratio was 1.003 ± 0.0061.
TGTAATTTCG gave a switch fluorescence ratio of 1.03 ± 0.04.
TGTAATTTTC was tested, and the switch fluorescence ratio was 1.05 ± 0.12.
TGTACAAAAT was tested, and the switch fluorescence ratio was 0.986 ± 0.047.
TGTACCGTGC was tested, and the switch fluorescence ratio was 1.07 ± 0.068.
TGTACGAGAA gave a switch fluorescence ratio of 1.003 ± 0.0035.
TGTACGGGGT showed a switch fluorescence ratio of 1.01 ± 0.021.
TGTACTAGGG gave a switch fluorescence ratio of 1.001 ± 0.0069.
With TGTAGAAAGG the switch fluorescence ratio was 1.03 ± 0.046.
For TGTAGACTGA, the switch fluorescence ratio was 1.01 ± 0.011.
Sequence TGTAGAGCCA has a switch fluorescence ratio of 1.03 ± 0.035.
TGTAGCAGGG gave a switch fluorescence ratio of 1.12 ± 0.043.
Sequence TGTAGGCGGC has a switch fluorescence ratio of 1.02 ± 0.015.
TGTAGTGTTG showed a switch fluorescence ratio of 1 ± 0.043.
TGTAGTTTGG gave a switch fluorescence ratio of 1.02 ± 0.032.
In the case of TGTATATTTT, the switch fluorescence ratio is reported as 0.98 ± 0.021.
With TGTATGAACT the switch fluorescence ratio was 0.98027 ± 3.7e-05.
For TGTATTAAGG, the switch fluorescence ratio was 1.01 ± 0.036.
TGTATTATGG showed a switch fluorescence ratio of 0.968 ± 0.0097.
TGTATTGAAC showed a switch fluorescence ratio of 1.03 ± 0.0024.
Sequence TGTATTGTGG has a switch fluorescence ratio of 0.987 ± 0.021.
TGTATTTGGC was tested, and the switch fluorescence ratio was 0.914 ± 0.044.
Sequence TGTATTTTTA has a switch fluorescence ratio of 1.01 ± 0.029.
Work on TGTCAGTTGG yielded a switch fluorescence ratio of 1.02 ± 0.06.
With TGTCCATGGG the switch fluorescence ratio was 1.013 ± 0.0047.
Sequence TGTCCCAAGC has a switch fluorescence ratio of 1.18 ± 0.03.
For TGTCCGTTGG, the switch fluorescence ratio was 1.05 ± 0.084.
For TGTCCGTTTG, the switch fluorescence ratio was 1.01 ± 0.023.
In the case of TGTCCTAAAA, the switch fluorescence ratio is reported as 1.05 ± 0.04.
In the case of TGTCCTCAAT, the switch fluorescence ratio is reported as 1.22 ± 0.02.
For TGTCGCTGGG, the switch fluorescence ratio was 1.02 ± 0.01.
With TGTCGGCGGT the switch fluorescence ratio was 1.05 ± 0.065.
TGTCGGGGTA was tested, and the switch fluorescence ratio was 0.995 ± 0.016.
TGTCGTGTTT was tested, and the switch fluorescence ratio was 0.9679 ± 0.0014.
TGTCGTTGGG was tested, and the switch fluorescence ratio was 0.9566 ± 0.0035.
With TGTGAAAAGT the switch fluorescence ratio was 0.996 ± 0.028.
TGTGAAAATT gave a switch fluorescence ratio of 1.01 ± 0.051.
For TGTGAAACCT, the switch fluorescence ratio was 1.95 ± 1.2.
TGTGACCGAA gave a switch fluorescence ratio of 0.9794 ± 0.0017.
For TGTGACGGGA, the switch fluorescence ratio was 1.091 ± 0.0051.
Work on TGTGAGGCGC yielded a switch fluorescence ratio of 1 ± 0.044.
Work on TGTGAGGCTA yielded a switch fluorescence ratio of 1.03 ± 0.012.
Work on TGTGAGTGTA yielded a switch fluorescence ratio of 1.01 ± 0.025.
In the case of TGTGATGCTG, the switch fluorescence ratio is reported as 1.02 ± 0.044.
With TGTGATTGTT the switch fluorescence ratio was 1.02 ± 0.013.
With TGTGATTTTC the switch fluorescence ratio was 1.01 ± 0.016.
Work on TGTGCAAAGG yielded a switch fluorescence ratio of 0.997 ± 0.042.
Work on TGTGCGTGAG yielded a switch fluorescence ratio of 0.9776 ± 0.0015.
TGTGCTATTT gave a switch fluorescence ratio of 1.09 ± 0.17.
In the case of TGTGCTTGGG, the switch fluorescence ratio is reported as 1.04 ± 0.027.
In the case of TGTGGAAGTT, the switch fluorescence ratio is reported as 0.9686 ± 0.0021.
For TGTGGACCAC, the switch fluorescence ratio was 1.04 ± 0.038.
TGTGGAGCAT was tested, and the switch fluorescence ratio was 1.29 ± 0.071.
For TGTGGATGTC, the switch fluorescence ratio was 0.977 ± 0.038.
TGTGGCAATT gave a switch fluorescence ratio of 1.07 ± 0.037.
In the case of TGTGGCATTA, the switch fluorescence ratio is reported as 0.992 ± 0.023.
In the case of TGTGGCGTAT, the switch fluorescence ratio is reported as 1.011 ± 0.0014.

From the supplement of paper PMC10126150
